Measured values from the nanobody polyreactivity screen of Harvey et al. (2022).

Assay: yeast display, Sf9 membrane polyspecificity reagent, FACS + sequencing; frameworks hold sequencing errors
Outline: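 Using colony PCR, genes from sorted yeast display clones were amplified, then sequenced on MiSeq at 2 × 250 and filtered by CDR length. The clones had been stained with 10% biotinylated, detergent-solubilized Sf9 membrane reagent for 1 hour at 4 °C and sorted by FACS into low and high (top ~1%) gates on anti-HA and streptavidin fluorescence. Polyreactivity labels come from the gate of origin.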

Sequence	polyreactivity (PSR sort gate)
QVQLVESGGGLVQAGGSLRISCAASGFIFRRYAMGWYRQAPGKERELVAAIRTNSGSTYYADSVKGRFTISRDNAKNTVYLQMNSLKPEDTAVYYCATGQVYRTVSWLYNYWGQGTQVTVSS	high polyreactivity
QVQLVESGGGLVQAGGSLRISCAASGFIFTLYAMGWYRQAPGKERELVAAISKRGGSTNYADSVKGRFTISRDNAKNTVYLLMNSLKPEDTAVYYCANARPGFLYDHWGQGTQLTVSS	high polyreactivity
QVQLVESGGGLVQAGGSLRISCAASGFIFVFYDRGWYRQAPGKEREFVAGITRNDGSTYYADSVKGRFKISRDNAKNTVYLQMNSLKPEDTAVYYCAAADSTWFDWGNYWYYYWGQGTQVTVSS	low polyreactivity
QVQLVESGGGLVQAGGSLRISCAASGFIFYYAMGWYRQAPGKERELVAAISSGSSTYADSVKGRFTISRDNAKNTVYLQMNSMKPEDTAVYYCAAKTQNAYYWGQGTQVTVSS	low polyreactivity
QVQLVESGGGLVQAGGSLRISCAASGFTFAYYAMGRYRQAPGKERELVASITSGGSTYYADSVKGRFTISRDNAKNNVYLQMNSLKPEDTAVYYCAADSSIDYDWGQGTQVTVSS	high polyreactivity
QVQLVESGGGLVQAGGSLRISCAASGFTFRSYVMGWYRQAAGKEWELVAAISSRGSSTSYADSVKGRFTISRDNAKNTVYLQMNSLKPEDTAVYDCAPRLFWRGRKFAYWGQGTQVTVSS	high polyreactivity
QVQLVESGGGLVQAGGSLRISCAASGFTFRWYTMGWYRQAPGKERELVAAISWSGTSTYYADSVKGRFTISRDNAKNTVYLQMNSLKPEDTAVYYCAAADFYYTGADDYWGQGTQVTVSS	high polyreactivity
QVQLVESGGGLVQAGGSLRISCAASGFTFSRNVMGWYRQAPGKERELVADITLSGASTYYADSVKGRFTISRDNAKNTVYLQMNSLNPEDTAGYYCAADPYLWRWGWRHDYWGQGTQVTVSS	low polyreactivity
QVQLVESGGGLVQAGGSLRISCAASGFTFTYYTMGWYRQAPGKERELVAAINRSGTSTYYADSVKGRFTISRDNAKNTVYLQMNSLKPEDTAVYYCAAKFTTGYYYGVPRDYWGQGTQVTVSS	high polyreactivity
QVQLVESGGGLVQAGGSLRISCAASGFTFYNYAMGWYRQAPGKRELVAAITSGGRTNYADSVKGRFTISRDNAKNTVYLQMNSRIPEDTAVYYCNAYPRWKFRSQVYDGWYGRFDYWGQGTQVTVSS	high polyreactivity
QVQLVESGGGLVQAGGSLRISCAASGGIFDTYVMGWYRQAPGKERELVAAISSSGSTTYADSVKGRFTISRDNAKNTVYLQMNSLKPEDTAVYYCNADYSTIWRYDYWGQGTQVTVSS	low polyreactivity
QVQLVESGGGLVQAGGSLRISCAASGGNFRYYTMGWYRQAPGKERELVAAITRGGRTYYADSVKGRFTISRDNAKNTVYIQMNSLKPEDTAVYYCAAVRPRSPVSYENDYWGQGTQVTVSS	high polyreactivity
QVQLVESGGGLVQAGGSLRISCAASGGTFTKNAMGWYRQAPGKERELLAAISWRGTSTYYADSVKGRFTISRDNAKNTVYLQMNSLKPEDTAVYYCNTDRYFRRYYWYDYWGQGTQVTVSS	high polyreactivity
QVQLVESGGGLVQAGGSLRISCAASGIIFKQNVMGWYRQAPGKERELVAAITSRDGSTYYADSVKGRFTISRDNAKNTVYLQMNSLKPEDTAVYYCAANWRSPRYYLYGYWGQGTQVTVSS	high polyreactivity
QVQLVESGGGLVQAGGSLRISCAASGIIFPYAMGWYRQAPGKERELVARITVGSTSYADSVKGRFTISRDNAKNTVYVQMNSLKPEDTAVYYCNKDSGEDDRWPYDYWGQGTQVTVSS	low polyreactivity
QVQLVESGGGLVQAGGSLRISCAASGIIFPYYVMGWYRQAPGKERELVAAINSGGRTYYADSVKGRFTISRDNAKNTVYLQMNSLKPEDTAVYYCARDLYYVYSFAPYRYEYWGQGTQVTVSS	low polyreactivity
QVQLVESGGGLVQAGGSLRISCAASGIIFRGNAMGWYRQAPGKERELVAAISSGGGTYYADSVKGRLTISRDNAKNTVYLQMNSLKPEDTAVYYCNRVRYYQYGYDYWGQGTEVTVSS	high polyreactivity
QVQLVESGGGLVQAGGSLRISCAASGITFPYYAMGWYRQAPGKERELVADITSGGSTNYADSVKGRFTISRDNAKNTVYLQMNSLKPEDTAVYYCAADWYVIYDYWGQGTQVTVSS	low polyreactivity
QVQLVESGGGLVQAGGSLRISCAASGITFRYYAMGWSIQAPGKERELVAAITCNGGGTYADSVKGRFTISRDNAKYTVYLEMNSLKPEDTAVYSCSADYGRRWGYDYWGQGTQVTVSS	low polyreactivity
QVQLVESGGGLVQAGGSLRISCAASGITFWYYAMGWYRQAPGKERELVAAITRSGRTNYADSVKGRFTISRDNAKNTVYLQMNSLKPEDTAVYYCNAASLRYSYTLFDSWGLGTQVTVSS	high polyreactivity
QVQLVESGGGLVQAGGSLRISCAASGITLNVYAMGWYRQAPGKERELVAAISYNGGRTYYADSVKGRFTISRDNAKNTVYLQMNSLKPEDTAVYYCAAQWPWGPYDYWGQGTQVTVSS	high polyreactivity
QVQLVESGGGLVQAGGSLRISCAASGITLYNYPMGWYRQAPGKERELVAAISLSGGRTYYAESVKGRFTISRDNAKNTVYLQMNSLQTEDTAVYYCAADWLNSDPYNYWGQGTQVTVSS	low polyreactivity
QVQLVESGGGLVQAGGSLRISCAASGLILIVYAMGWYRQAPGKERELVAAISSGGITYYADSVKGRFTISRDNAKNTVYLQMNSLKPEDTAVYYCAAESAYWWGDYYYWGQGTQVTVSS	high polyreactivity
QVQLVESGGGLVQAGGSLRISCAASGNAMGWYRQAPGKERELVAVITGGGSTYYADSVKGRFTISRDNAKNTVYLQMNSLKPEDTAVYYCAAKGPYYKSSRTGDYWGQGTQVTVSS	low polyreactivity
QVQLVESGGGLVQAGGSLRISCAASGNILFSYAMGWYRQAPGKERELVAAISRSGGSTYYADSVKGRFTISRDNAKNTVYLQMNSLKPEDTAVYYCNTYSIAYYSPGYDYWGQGTQVTVSS	high polyreactivity
QVQLVESGGGLVQAGGSLRISCAASGNSFVSNVMGWYREAPGKERELVAAISSGGRTYYADSVKGRFTISRDNAKNTVYLQMNSLKPEDTAVYYCAASYKSKYLGGGEYWGQGTQVTLSS	high polyreactivity
QVQLVESGGGLVQAGGSLRISCAASGNTFTRNTMGWYRQAPGKERELVASISLSGASTYYADSVKGRFTISRDNAKNTVYLQMNSLKPEDTAVYYCAARSRQDLEYDYWGQGTQVTVSS	high polyreactivity
QVQLVESGGGLVQAGGSLRISCAASGRIFATNAMGWYRQAPGKERELVAVITGGGDTNYADSVKGRFTISRDNAKNTVYLQMNSLKPEDTAVYYCAAEGSFYRYHVGSDYWGQGTQVTVSS	low polyreactivity
QVQLVESGGGLVQAGGSLRISCAASGRIFERNAMRWYRQAPGKERELVAAITYNGGRTYYADSVKGRFTISRDNAKITVYLQMNSLKPEDTAVYNCNAQSRVTRSSYRGSPRYDFWGQGTQVTVSS	high polyreactivity
QVQLVESGGGLVQAGGSLRISCAASGRIFFTNAMGWYRQAPGKDRELVAAISKSGARTYYADSVKGRFTISRDNAKNTVYLQMNSLKPEDTAVYYCSEFYYWGQGTQVTVSS	high polyreactivity
